For the test, the target named is active MMP-2 (Calbiochem) (UniProt P08253). In words: cell-based or functional assay.
UniProt P08253, sequence (P08253 110-660 limits assumed): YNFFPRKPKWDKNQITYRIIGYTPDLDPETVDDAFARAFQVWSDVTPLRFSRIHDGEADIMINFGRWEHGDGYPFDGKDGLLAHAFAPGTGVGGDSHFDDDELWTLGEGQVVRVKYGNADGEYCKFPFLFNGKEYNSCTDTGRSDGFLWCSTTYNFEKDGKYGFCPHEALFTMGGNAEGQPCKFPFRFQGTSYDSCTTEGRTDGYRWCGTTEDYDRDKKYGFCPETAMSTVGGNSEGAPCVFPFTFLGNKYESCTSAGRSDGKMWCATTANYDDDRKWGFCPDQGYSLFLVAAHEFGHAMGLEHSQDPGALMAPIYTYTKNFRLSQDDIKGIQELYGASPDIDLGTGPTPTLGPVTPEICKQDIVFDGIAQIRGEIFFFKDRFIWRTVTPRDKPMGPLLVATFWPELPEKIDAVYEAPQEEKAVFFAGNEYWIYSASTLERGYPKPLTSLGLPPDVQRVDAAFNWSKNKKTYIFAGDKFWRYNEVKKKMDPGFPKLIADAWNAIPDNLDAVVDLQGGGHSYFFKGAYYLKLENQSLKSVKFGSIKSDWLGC

On to “TIMP-1-HA (exogenous human TIMP-1 with a C-terminal HA epitope tag, secreted by stable NIKS clone INV TIMP-1-HA:28) (from UniProt P01033 24-207)”, for which the inhibition in MMP-2 protease activity compared to untransfected NIKS (EnzChek Gelatinase/Collagenase Assay, DQ gelatin) was < 40%.

The values are drawn from patent US20060257383A1.
